Substitutions are numbered along the chain they refer to.
B1: anti-BCMA CAR of recombinant lentivirus LV 1 (SEQ ID NO: 256) (receptor)
chain: EIVLTQSPATLSLSPGERATLSCRASQSVSSYLAWYQQKPGQAPRLLIYDASNRATGIPARFSGSGSGTDFTLTISSLEPEDFAVYYCQQRVVYPITFGGGTKVEIKGGGGSGGGGSGGGGSGGGGSQITLKESGPTLVKPTQTLTLTCTFSGFSLSTSGVGVGWIRQPPGKALEWLALIYWNDEKRYSPSLKSRLTITKDTSKNQVVLTMTNMDPVDTAVYYCARDEYGGFDIWGQGTMVTVSSTTTPAPRPPTPAPTIASQPLSLRPEACRPAAGGAVHTRGLDFACDIYIWAPLAGTCGVLLLSLVITLYCKRGRKKLLYIFKQPFMRPVQTTQEEDGCSCRFPEEEEGGCELRVKFSRSADAPAYQQGQNQLYNELNLGRREEYDVLDKRRGRDPEMGGKPRRKNPQEGLYNELQKDKMAEAYSEIGMKGERRRGKGHDGLYQGLSTATKDTYDALHMQALPPR
B2: anti-BCMA CAR of recombinant lentivirus LV 2 (SEQ ID NO: 258) (receptor)
chain: B1 chain with V92F, V93D, E185D
B3: anti-BCMA CAR of recombinant lentivirus LV 10 (SEQ ID NO: 274) (receptor)
chain: EVQLLESGGGLVQPGGSLRLSCAASGFTFESEAMSWYRQAPGKERELVSVITSEGSTYYADSVKGRFTISRDNSKNTLYLQMNSLRAEDTAVYYCAHIEWETRLNWGQGTQVTVSSTTTPAPRPPTPAPTIASQPLSLRPEACRPAAGGAVHTRGLDFACDIYIWAPLAGTCGVLLLSLVITLYCKRGRKKLLYIFKQPFMRPVQTTQEEDGCSCRFPEEEEGGCELRVKFSRSADAPAYQQGQNQLYNELNLGRREEYDVLDKRRGRDPEMGGKPRRKNPQEGLYNELQKDKMAEAYSEIGMKGERRRGKGHDGLYQGLSTATKDTYDALHMQALPPR
B4: anti-BCMA CAR of recombinant lentivirus LV 11 (SEQ ID NO: 275) (receptor)
chain: EVQLLESGGGLVQPGGSLRLSCAASGFTFDEYTMHWFRQAPGKEREFVSAISGGGSETYYADSVKGRFTISRDNSKNTLYLQMNSLRAEDTAVYYCAAGGEEAGVGYWGQGTQVTVSSTTTPAPRPPTPAPTIASQPLSLRPEACRPAAGGAVHTRGLDFACDIYIWAPLAGTCGVLLLSLVITLYCKRGRKKLLYIFKQPFMRPVQTTQEEDGCSCRFPEEEEGGCELRVKFSRSADAPAYQQGQNQLYNELNLGRREEYDVLDKRRGRDPEMGGKPRRKNPQEGLYNELQKDKMAEAYSEIGMKGERRRGKGHDGLYQGLSTATKDTYDALHMQALPPR
B5: anti-BCMA CAR of recombinant lentivirus LV 12 (SEQ ID NO: 276) (receptor)
chain: EVQLLESGGGLVQPGGSLRLSCAASGFTFEDYAMSWFRQAPGKEREGVSAISGKGGSTYYADSVKGRFTISRDNSKNTLYLQMNSLRAEDTAVYYCAVLDEEAGAEGGYWGQGTQVTVSSTTTPAPRPPTPAPTIASQPLSLRPEACRPAAGGAVHTRGLDFACDIYIWAPLAGTCGVLLLSLVITLYCKRGRKKLLYIFKQPFMRPVQTTQEEDGCSCRFPEEEEGGCELRVKFSRSADAPAYQQGQNQLYNELNLGRREEYDVLDKRRGRDPEMGGKPRRKNPQEGLYNELQKDKMAEAYSEIGMKGERRRGKGHDGLYQGLSTATKDTYDALHMQALPPR
B6: anti-BCMA CAR of recombinant lentivirus LV 13 (SEQ ID NO: 277) (receptor)
chain: B5 chain with E30D, D31R, G53T, K54S, G56D
notes: also called LV 13.1 to LV 13.9
B7: anti-BCMA CAR of recombinant lentivirus LV 15 (SEQ ID NO: 279) (receptor)
chain: EVQLLESGGGLVQPGGSLRLSCAASGFTFDSYTMSWYRQAPGKERELVSAISGHGDSTYYADSVKGRFTISRDNSKNTLYLQMNSLRAEDTAVYYCTRISITTEWLAGDYWGQGTQVTVSSTTTPAPRPPTPAPTIASQPLSLRPEACRPAAGGAVHTRGLDFACDIYIWAPLAGTCGVLLLSLVITLYCKRGRKKLLYIFKQPFMRPVQTTQEEDGCSCRFPEEEEGGCELRVKFSRSADAPAYQQGQNQLYNELNLGRREEYDVLDKRRGRDPEMGGKPRRKNPQEGLYNELQKDKMAEAYSEIGMKGERRRGKGHDGLYQGLSTATKDTYDALHMQALPPR
B8: anti-BCMA CAR of recombinant lentivirus LV 18 (SEQ ID NO: 283) (receptor)
chain: EVQLLESGGGLVQPGGSLRLSCAASGFTFSSEGMSWVRQAPGKERELVSAISGSGDHTYYADSVRGRFTISRDNSKNTLYLQMNSLRAEDTAVYYCNALEGGPTTAIQPGGPDYWGQGTQVTVSSTTTPAPRPPTPAPTIASQPLSLRPEACRPAAGGAVHTRGLDFACDIYIWAPLAGTCGVLLLSLVITLYCKRGRKKLLYIFKQPFMRPVQTTQEEDGCSCRFPEEEEGGCELRVKFSRSADAPAYQQGQNQLYNELNLGRREEYDVLDKRRGRDPEMGGKPRRKNPQEGLYNELQKDKMAEAYSEIGMKGERRRGKGHDGLYQGLSTATKDTYDALHMQALPPR
B9: anti-BCMA CAR of recombinant lentivirus LV 3 (SEQ ID NO: 259) (receptor)
chain: QVQLVESGGGVVQPGRSLRLSCAASGFTFSSYGMHWVRQAPGKGLEWVAVISYEGSNKYYADSVKGRFTISRDNSKNTLYLQMNSLRAEDTAVYYCARELGDGMDVWGQGTTVTVSSGGGGSGGGGSGGGGSGGGGSEIVLTQSPATLSLSPGERATLSCRASQSVSSYLAWFQQKPGQAPRLLIYDASNRATGIPARFSGSGSGTDFTLTISSLEPEDFAVYYCQQRVDLWTFGGGTKVEIKTTTPAPRPPTPAPTIASQPLSLRPEACRPAAGGAVHTRGLDFACDIYIWAPLAGTCGVLLLSLVITLYCKRGRKKLLYIFKQPFMRPVQTTQEEDGCSCRFPEEEEGGCELRVKFSRSADAPAYQQGQNQLYNELNLGRREEYDVLDKRRGRDPEMGGKPRRKNPQEGLYNELQKDKMAEAYSEIGMKGERRRGKGHDGLYQGLSTATKDTYDALHMQALPPR
notes: also called LV 3.1 to LV 3.9
B10: anti-BCMA CAR of recombinant lentivirus LV 5 (SEQ ID NO: 263) (receptor)
chain: QVQLVESGGGLVKPGGSLRLSCAASGFTFSDYYMSWIRQAPGKGLEWVSYISSSGSTIYYADSVKGRFTISRDNAKNSLYLQMNSLRAEDTAVYYCARDQGNYGVDVWGQGTTVTVSSGGGGSGGGGSGGGGSGGGGSDIQMTQSPSTLSASVGDRVTITCRASQSISSWLAWYQQKPGKAPKLLIYEASSLESGVPSRFSGSGSGTEFTLTISSLQPDDFATYYCQQSDSHPITFGGGTKVEIKTTTPAPRPPTPAPTIASQPLSLRPEACRPAAGGAVHTRGLDFACDIYIWAPLAGTCGVLLLSLVITLYCKRGRKKLLYIFKQPFMRPVQTTQEEDGCSCRFPEEEEGGCELRVKFSRSADAPAYQQGQNQLYNELNLGRREEYDVLDKRRGRDPEMGGKPRRKNPQEGLYNELQKDKMAEAYSEIGMKGERRRGKGHDGLYQGLSTATKDTYDALHMQALPPR
notes: also called LV 5.1 to LV 5.9
B11: anti-BCMA CAR of recombinant lentivirus LV 7 (SEQ ID NO: 268) (receptor)
chain: DIQMTQSPSSLSASVGDRVTITCRASQSISSYLNWYQQKPGKAPKLLIYAASSLQSGVPSRFSGSGSGTDFTLTISSLQPEDFATYYCQQAHSSPITFGGGTKVEIKGGGGSGGGGSGGGGSGGGGSEVQLLESGGGLVQPGGSLRLSCAASGFTFSNYAMSWVRQAPGKGLEWVSAISGSGGSTYYADSVKGRFTISRDNSKNTLYLQMNSLRAEDTAVYYCARPGDGYYEGVYFDYWGQGTLVTVSSTTTPAPRPPTPAPTIASQPLSLRPEACRPAAGGAVHTRGLDFACDIYIWAPLAGTCGVLLLSLVITLYCKRGRKKLLYIFKQPFMRPVQTTQEEDGCSCRFPEEEEGGCELRVKFSRSADAPAYQQGQNQLYNELNLGRREEYDVLDKRRGRDPEMGGKPRRKNPQEGLYNELQKDKMAEAYSEIGMKGERRRGKGHDGLYQGLSTATKDTYDALHMQALPPR
B12: anti-BCMA CAR of recombinant lentivirus LV 8 (SEQ ID NO: 270) (receptor)
chain: DIQMTQSPSSLSASVGDRVTITCQASQDIANYLNWYQQKPGKAPKLLIYDASNLETGVPSRFSGSGSGTDFTFTISSLQPEDIATYYCQQHFNLPLTFGGGTKVEIKGGGGSGGGGSGGGGSGGGGSQITLKESGPTLVKPTQTLTLTCTFSGFSLSTSGVGVGWIRQPPGKALEWLALIYWNDEKRYSPSLKSRLTITKDTSKNQVVLTMTNMDPVDTAVYYCAREGSHDYKSSNWFDPWGQGTLVTVSSTTTPAPRPPTPAPTIASQPLSLRPEACRPAAGGAVHTRGLDFACDIYIWAPLAGTCGVLLLSLVITLYCKRGRKKLLYIFKQPFMRPVQTTQEEDGCSCRFPEEEEGGCELRVKFSRSADAPAYQQGQNQLYNELNLGRREEYDVLDKRRGRDPEMGGKPRRKNPQEGLYNELQKDKMAEAYSEIGMKGERRRGKGHDGLYQGLSTATKDTYDALHMQALPPR
notes: also called LV 8.1 to LV 8.9
B13: anti-BCMA CAR of recombinant lentivirus LV 9 (SEQ ID NO: 273) (receptor)
chain: EVQLLESGGGLVQPGGSLRLSCAASGFTFGSEAMSWVRQAPGKERELVSAISGSGEVTYYADSVKGRFTISRDNSKNTLYLQMNSLRAEDTAVYYCQRLVEAKRHWGQGTQVTVSSTTTPAPRPPTPAPTIASQPLSLRPEACRPAAGGAVHTRGLDFACDIYIWAPLAGTCGVLLLSLVITLYCKRGRKKLLYIFKQPFMRPVQTTQEEDGCSCRFPEEEEGGCELRVKFSRSADAPAYQQGQNQLYNELNLGRREEYDVLDKRRGRDPEMGGKPRRKNPQEGLYNELQKDKMAEAYSEIGMKGERRRGKGHDGLYQGLSTATKDTYDALHMQALPPR
notes: also called LV 9.1 to LV 9.9

These binders were tested against T1, recombinant, phycoerythrin (PE) labeled, BCMA extracellular domain-FC fusion protein (Homo sapiens (Human), UniProt Q02223 1-54, phycoerythrin (PE) label) (assay: flow cytometry of transduced PBMCs stained with BCMA-PE (PE-labeled BCMA extracellular domain-Fc)).
T1 construct: The whole entry is named here; only the extracellular domain stood in the assay; also called BCMA-PE; not shown: Fc part of the staining reagent
T1 sequence: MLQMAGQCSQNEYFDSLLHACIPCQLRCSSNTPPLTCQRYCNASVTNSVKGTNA
Method: 5×10⁵ human PBMCs were plated in each well of a 24-well plate. Cells were transduced with recombinant lentiviruses LV 1 to LV 19 at a MOI 2 based on the Jurkat functional titer, or a 0.5 mL volumetric transduction if MOI 2 was not achievable. Seven days post-transduction, PBMCs were harvested and stained with BCMA-PE and analyzed by flow cytometry to assess the percentage of anti-BCMA CAR expressing cells. FIG. 2B.
B1: binds. B2: binds. B3: binds. B4: binds. B5: binds. B6: binds. B7: binds. B8: binds. B9: binds. B10: binds. B11: binds. B12: binds. B13: binds.
